Tests used:
[1] = molecular target: SARS-CoV-2 spike receptor binding domain (RBD), recombinant (SARS-CoV-2, UniProt P0DTC2 319-541); assay: bead flow cytometry, AUC minus CD4
[2] = molecular target: SARS-CoV-2 spike N-terminal domain (NTD), recombinant (SARS-CoV-2, UniProt P0DTC2 14-305); assay: bead flow cytometry, AUC minus CD4

| Binder | binding result [1] | binding result [2] |
| --- | --- | --- |
| COV77-39 (antibody, V domains shown) VH: RVQLQESGPGLVKPSETLSLTCTVSGGSITDDYWNWIRQPPGKGLEWIGYVHDSGTTNYNPSLKSRVTLSLHTSGNKFSLRLTSVTAADTAMYYCARTTTTFPFDSWGQGTLVIVSS VL: SYELTQPPSVSVSLGQMARITCSGEALPKKYVYWYQQKPGQFPVLVIYKDRERPSGIPERFSGSSSGTIVTLTISGVQAEDEADYYCLSVDSTANWVFGGGTKLTVL | no binding (tested: 200 µg/mL) | no binding (tested: 200 µg/mL) |
| COV57-03 (antibody, V domains shown) VH: QVHLVESGGGVVQPGRSLRLSCAASGFTFSSFGMHWVRQAPGKGLEWVAVISDDGNNKFYADSVKGRFSISRDNSKNTLYLQMNSLRAEDTAVYYCVRAFRNSNWATGEYFDYWGQGTLVTVSS VL: not shown | no binding (tested: 200 µg/mL) | no binding (tested: 200 µg/mL) |
| COV57-04 (antibody, V domains shown) VH: QVQLVESGGGVVQPGRSLRLSCAASGFTFSNFGMHWVRQAPGKGLEWVAVISDDGNNEFYAGSVKGRFSISRDNSKNTLYLQMNSLRPEDTAVYYCVRAFRNSNWATGEYFDYWGQGTLVTVSS VL: not shown | no binding (tested: 200 µg/mL) | no binding (tested: 200 µg/mL) |
| COV77-04 (antibody, V domains shown) VH: QVRLQESGPGLVKPSETLSVTCTVSGVSISNYYWSWIRQPPGKGLEWIGYISDTGSTNYSPSLQSRVTISVDMSKNQVSLEVTSVTATDTAVYYCARTTTSVPFDYWGKGVLVTVSS VL: SYELTQPPSVSVSPGQVARITCSGEALPKKYAYWYQHKPGQFPLLVIHKDSERPSGIPERFSGSSSGTVVTLTISGVQAEDEADYFCLSTDGSTTWVFGGGTKLTVL | no binding (tested: 200 µg/mL) | no binding (tested: 200 µg/mL) |
| COV78-36 (antibody, V domains shown) VH: EVQLVQSGAEVKKPGESLRISCKGSGYSFSNSWITWVRQMPGKGLEWVGRIDTRDSRTAYSPSFEGHVFFSADRSSDTVYVQWRSLRASDTAVYYCTTGAGVVIAASYFWGQGTLVTVSS VL: QSALTQPPSASGSPGQPVTISCTGTSSDVGGYEYVSWYQQLPGKVPTLIIHEVSKRPSGVPDRFSGSKSGNTASLTVSGLQAEDEADYYCSSYSADSSIIFGGGTKLTVL | no binding (tested: 200 µg/mL) | no binding (tested: 200 µg/mL) |
| COV44-79 (antibody, V domains shown) VH: QVQLVESGGGVVQPGRSLRLSCAASGLTFSGYAMHWVRQAPGKGLEWVAVISRDARNKYYADSVKGRFTISRDNSKKTVYLEMNSLRVEDTAVYYCAILIIPGITEPGSPDALDIWGQGTMVSVSS VL: DIQMTQSPSSMSASVGDRVTITCRASQDISKWLAWYQQRPGKAPKLLIYAASSLQSGVPSRFSGSGSGTDFTLTISSLQPEDFATYYCQQASSFPWSITFGQGTRLEIR | – | no binding (tested: 200 µg/mL) |
| COV44-62 (antibody, V domains shown) VH: QMQLMQSGAEVKKPGASVTVSCKASGDTFSDYRIHWVRQAPGQGLEWMGRMNPKSGDTNFAQKFQGRVTMTRDMSINTAYMTLSGLTFDDTALYYCASLLIVGGFDPLDDFEVWGQGTMVTISS VL: QSALTQPPSASGSPGQSVTISCSGTSSDVGGYNFVSWYQHHPGKAPKILIYEVTKRPSGVPDRFSGSKSGNTASLTVSGLQAEDEADYYCSSYGGTNNLLFGGGTKLTVL | – | no binding (tested: 200 µg/mL) |
| COV91-27 (antibody, V domains shown) VH: QVQLVESGGGVVHPGGSLRLSCAASGFTFSDFAMNWVRQAPGEGLQWVAIISYDGRNKHFAASVRGRFTISRDNSKNTMFLQMSSLRAEDTAIYYCATLGGWFEEASPTYWGRGTLVTVSS VL: EVVLTQSPAIVSLSPGERATLSCRASQSVGSRLAWHQQKPGLAPRVLIYDASNRATGIPARFSGSGSGTDFTLTISSIEPEDSAVYYCQQRGDWPLITFGQGTRLEIK | – | no binding (tested: 200 µg/mL) |
